Laboratory results as given in patent US12679878B2, “CRF2 receptor agonists and their use in therapy” (SANOFI, priority 2020, dated 2026).
Starred links: 1 amine or outer side, 2 acyl side, 3 side chain; linkers in the order of their positions; H or OH if unused. Non-standard residues stand in square brackets, D forms with d. Groups on a side chain read outwards from the residue. No end group written: not given here. *: point of attachment. C18 diacid = O=C(O)CCCCCCCCCCCCCCCCC(=O)*; γGlu = O=C(O)[C@H](CCC(=O)[*:2])N[*:1]; Palmitoyl = CCCCCCCCCCCCCCCC(=O)*; AEEA = NCCOCCOCC(=O)O; Aib = CC(C)(N)C(=O)O

Molecular target: human corticotropin-releasing factor 2α (CRF2 α receptor) (human), Q13324
Sequence (Q13324 20-411): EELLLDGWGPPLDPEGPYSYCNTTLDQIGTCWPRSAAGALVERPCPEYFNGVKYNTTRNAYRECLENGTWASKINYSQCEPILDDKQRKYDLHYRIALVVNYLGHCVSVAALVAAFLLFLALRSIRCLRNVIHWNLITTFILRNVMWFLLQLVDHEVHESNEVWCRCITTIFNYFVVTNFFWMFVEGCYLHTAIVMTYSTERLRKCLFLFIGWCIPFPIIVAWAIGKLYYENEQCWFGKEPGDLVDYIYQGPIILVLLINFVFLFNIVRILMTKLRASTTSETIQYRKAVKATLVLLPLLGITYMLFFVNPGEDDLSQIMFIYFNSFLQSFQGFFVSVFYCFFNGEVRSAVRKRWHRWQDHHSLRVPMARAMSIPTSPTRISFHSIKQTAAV
Test: cell-based or functional assay

B1: SEQ ID NO: 96 (peptide)
peptide: IVLSLDVPIKLK([AEEA-AEEA-γGlu-C18 diacid])QILLKQERQKKEREQAETNKQILAQV-NH2
modifications: N-terminus assumed
SMILES: CC[C@H](C)[C@H](N)C(=O)N[C@H](C(=O)N[C@@H](CC(C)C)C(=O)N[C@@H](CO)C(=O)N[C@@H](CC(C)C)C(=O)N[C@@H](CC(=O)O)C(=O)N[C@H](C(=O)N1CCC[C@H]1C(=O)N[C@H](C(=O)N[C@@H](CCCCN)C(=O)N[C@@H](CC(C)C)C(=O)N[C@@H](CCCCNC(=O)COCCOCCNC(=O)COCCOCCNC(=O)CC[C@H](NC(=O)CCCCCCCCCCCCCCCCC(=O)O)C(=O)O)C(=O)N[C@@H](CCC(N)=O)C(=O)N[C@H](C(=O)N[C@@H](CC(C)C)C(=O)N[C@@H](CC(C)C)C(=O)N[C@@H](CCCCN)C(=O)N[C@@H](CCC(N)=O)C(=O)N[C@@H](CCC(=O)O)C(=O)N[C@@H](CCCNC(=N)N)C(=O)N[C@@H](CCC(N)=O)C(=O)N[C@@H](CCCCN)C(=O)N[C@@H](CCCCN)C(=O)N[C@@H](CCC(=O)O)C(=O)N[C@@H](CCCNC(=N)N)C(=O)N[C@@H](CCC(=O)O)C(=O)N[C@@H](CCC(N)=O)C(=O)N[C@@H](C)C(=O)N[C@@H](CCC(=O)O)C(=O)N[C@H](C(=O)N[C@@H](CC(N)=O)C(=O)N[C@@H](CCCCN)C(=O)N[C@@H](CCC(N)=O)C(=O)N[C@H](C(=O)N[C@@H](CC(C)C)C(=O)N[C@@H](C)C(=O)N[C@@H](CCC(N)=O)C(=O)N[C@H](C(N)=O)C(C)C)[C@@H](C)CC)[C@@H](C)O)[C@@H](C)CC)[C@@H](C)CC)C(C)C)C(C)C
Q: For B1, which EC50 [nM], 0% HSA is on record?
A: 0.38 nM

B2: SEQ ID NO: 95 (peptide)
peptide: IVLSLDVPIKLK([AEEA-AEEA-γGlu-C18 diacid])QKLLKQERQKKEREQAETNKQILAQV-NH2
modifications: N-terminus assumed
SMILES: CC[C@H](C)[C@H](N)C(=O)N[C@H](C(=O)N[C@@H](CC(C)C)C(=O)N[C@@H](CO)C(=O)N[C@@H](CC(C)C)C(=O)N[C@@H](CC(=O)O)C(=O)N[C@H](C(=O)N1CCC[C@H]1C(=O)N[C@H](C(=O)N[C@@H](CCCCN)C(=O)N[C@@H](CC(C)C)C(=O)N[C@@H](CCCCNC(=O)COCCOCCNC(=O)COCCOCCNC(=O)CC[C@H](NC(=O)CCCCCCCCCCCCCCCCC(=O)O)C(=O)O)C(=O)N[C@@H](CCC(N)=O)C(=O)N[C@@H](CCCCN)C(=O)N[C@@H](CC(C)C)C(=O)N[C@@H](CC(C)C)C(=O)N[C@@H](CCCCN)C(=O)N[C@@H](CCC(N)=O)C(=O)N[C@@H](CCC(=O)O)C(=O)N[C@@H](CCCNC(=N)N)C(=O)N[C@@H](CCC(N)=O)C(=O)N[C@@H](CCCCN)C(=O)N[C@@H](CCCCN)C(=O)N[C@@H](CCC(=O)O)C(=O)N[C@@H](CCCNC(=N)N)C(=O)N[C@@H](CCC(=O)O)C(=O)N[C@@H](CCC(N)=O)C(=O)N[C@@H](C)C(=O)N[C@@H](CCC(=O)O)C(=O)N[C@H](C(=O)N[C@@H](CC(N)=O)C(=O)N[C@@H](CCCCN)C(=O)N[C@@H](CCC(N)=O)C(=O)N[C@H](C(=O)N[C@@H](CC(C)C)C(=O)N[C@@H](C)C(=O)N[C@@H](CCC(N)=O)C(=O)N[C@H](C(N)=O)C(C)C)[C@@H](C)CC)[C@@H](C)O)[C@@H](C)CC)C(C)C)C(C)C
Q: B2 was tested. Which EC50 [nM], 0% HSA did it give?
A: 25 nM

Q: How did the EC50 [nM], 0% HSA turn out when IVLSLD[dV]PTKLK([γGlu-Palmitoyl])QKLLKQERQRKEREQAEKNARILARV-NH2 [SEQ ID NO: 7] was run?
A: 0.02 nM

Q: And the EC50 [nM], 0.1% HSA?
A: 0.03 nM

B3: SEQ ID NO: 97 (peptide)
peptide: IVLSLDVPIKLK([AEEA-AEEA-γGlu-C18 diacid])QKLLKQERQKKQREQAETNKQILAQV-NH2
modifications: N-terminus assumed
SMILES: CC[C@H](C)[C@H](N)C(=O)N[C@H](C(=O)N[C@@H](CC(C)C)C(=O)N[C@@H](CO)C(=O)N[C@@H](CC(C)C)C(=O)N[C@@H](CC(=O)O)C(=O)N[C@H](C(=O)N1CCC[C@H]1C(=O)N[C@H](C(=O)N[C@@H](CCCCN)C(=O)N[C@@H](CC(C)C)C(=O)N[C@@H](CCCCNC(=O)COCCOCCNC(=O)COCCOCCNC(=O)CC[C@H](NC(=O)CCCCCCCCCCCCCCCCC(=O)O)C(=O)O)C(=O)N[C@@H](CCC(N)=O)C(=O)N[C@@H](CCCCN)C(=O)N[C@@H](CC(C)C)C(=O)N[C@@H](CC(C)C)C(=O)N[C@@H](CCCCN)C(=O)N[C@@H](CCC(N)=O)C(=O)N[C@@H](CCC(=O)O)C(=O)N[C@@H](CCCNC(=N)N)C(=O)N[C@@H](CCC(N)=O)C(=O)N[C@@H](CCCCN)C(=O)N[C@@H](CCCCN)C(=O)N[C@@H](CCC(N)=O)C(=O)N[C@@H](CCCNC(=N)N)C(=O)N[C@@H](CCC(=O)O)C(=O)N[C@@H](CCC(N)=O)C(=O)N[C@@H](C)C(=O)N[C@@H](CCC(=O)O)C(=O)N[C@H](C(=O)N[C@@H](CC(N)=O)C(=O)N[C@@H](CCCCN)C(=O)N[C@@H](CCC(N)=O)C(=O)N[C@H](C(=O)N[C@@H](CC(C)C)C(=O)N[C@@H](C)C(=O)N[C@@H](CCC(N)=O)C(=O)N[C@H](C(N)=O)C(C)C)[C@@H](C)CC)[C@@H](C)O)[C@@H](C)CC)C(C)C)C(C)C
Q: B3 was tested. Which EC50 [nM], 0% HSA did it give?
A: 1.66 nM

B4: SEQ ID NO: 94 (peptide)
peptide: IVLSLDVPIKLK([AEEA-AEEA-γGlu-C18 diacid])KILLKQERQKKEREQAETNKQILAQV-NH2
modifications: N-terminus assumed
SMILES: CC[C@H](C)[C@H](N)C(=O)N[C@H](C(=O)N[C@@H](CC(C)C)C(=O)N[C@@H](CO)C(=O)N[C@@H](CC(C)C)C(=O)N[C@@H](CC(=O)O)C(=O)N[C@H](C(=O)N1CCC[C@H]1C(=O)N[C@H](C(=O)N[C@@H](CCCCN)C(=O)N[C@@H](CC(C)C)C(=O)N[C@@H](CCCCNC(=O)COCCOCCNC(=O)COCCOCCNC(=O)CC[C@H](NC(=O)CCCCCCCCCCCCCCCCC(=O)O)C(=O)O)C(=O)N[C@@H](CCCCN)C(=O)N[C@H](C(=O)N[C@@H](CC(C)C)C(=O)N[C@@H](CC(C)C)C(=O)N[C@@H](CCCCN)C(=O)N[C@@H](CCC(N)=O)C(=O)N[C@@H](CCC(=O)O)C(=O)N[C@@H](CCCNC(=N)N)C(=O)N[C@@H](CCC(N)=O)C(=O)N[C@@H](CCCCN)C(=O)N[C@@H](CCCCN)C(=O)N[C@@H](CCC(=O)O)C(=O)N[C@@H](CCCNC(=N)N)C(=O)N[C@@H](CCC(=O)O)C(=O)N[C@@H](CCC(N)=O)C(=O)N[C@@H](C)C(=O)N[C@@H](CCC(=O)O)C(=O)N[C@H](C(=O)N[C@@H](CC(N)=O)C(=O)N[C@@H](CCCCN)C(=O)N[C@@H](CCC(N)=O)C(=O)N[C@H](C(=O)N[C@@H](CC(C)C)C(=O)N[C@@H](C)C(=O)N[C@@H](CCC(N)=O)C(=O)N[C@H](C(N)=O)C(C)C)[C@@H](C)CC)[C@@H](C)O)[C@@H](C)CC)[C@@H](C)CC)C(C)C)C(C)C
Q: How did the EC50 [nM], 0% HSA turn out when B4 was run?
A: 1.73 nM

Q: What about the EC50 [nM], 0.1% HSA of the same binder?
A: 49.1 nM

B5: SEQ ID NO: 93 (peptide)
peptide: IVLSLDVPIKLK([AEEA-AEEA-γGlu-C18 diacid])QKLLKQERQKKQREKAKTNVQILAQV-NH2
modifications: N-terminus assumed
SMILES: CC[C@H](C)[C@H](N)C(=O)N[C@H](C(=O)N[C@@H](CC(C)C)C(=O)N[C@@H](CO)C(=O)N[C@@H](CC(C)C)C(=O)N[C@@H](CC(=O)O)C(=O)N[C@H](C(=O)N1CCC[C@H]1C(=O)N[C@H](C(=O)N[C@@H](CCCCN)C(=O)N[C@@H](CC(C)C)C(=O)N[C@@H](CCCCNC(=O)COCCOCCNC(=O)COCCOCCNC(=O)CC[C@H](NC(=O)CCCCCCCCCCCCCCCCC(=O)O)C(=O)O)C(=O)N[C@@H](CCC(N)=O)C(=O)N[C@@H](CCCCN)C(=O)N[C@@H](CC(C)C)C(=O)N[C@@H](CC(C)C)C(=O)N[C@@H](CCCCN)C(=O)N[C@@H](CCC(N)=O)C(=O)N[C@@H](CCC(=O)O)C(=O)N[C@@H](CCCNC(=N)N)C(=O)N[C@@H](CCC(N)=O)C(=O)N[C@@H](CCCCN)C(=O)N[C@@H](CCCCN)C(=O)N[C@@H](CCC(N)=O)C(=O)N[C@@H](CCCNC(=N)N)C(=O)N[C@@H](CCC(=O)O)C(=O)N[C@@H](CCCCN)C(=O)N[C@@H](C)C(=O)N[C@@H](CCCCN)C(=O)N[C@H](C(=O)N[C@@H](CC(N)=O)C(=O)N[C@H](C(=O)N[C@@H](CCC(N)=O)C(=O)N[C@H](C(=O)N[C@@H](CC(C)C)C(=O)N[C@@H](C)C(=O)N[C@@H](CCC(N)=O)C(=O)N[C@H](C(N)=O)C(C)C)[C@@H](C)CC)C(C)C)[C@@H](C)O)[C@@H](C)CC)C(C)C)C(C)C
Q: With B5 as the binder, how does the EC50 [nM], 0% HSA read?
A: 50.9 nM

B6: SEQ ID NO: 92 (peptide)
peptide: IVLSLDVPIKLK([AEEA-AEEA-γGlu-C18 diacid])QKLLEQERQKKQREQAETN[Aib]QILAQV-NH2
modifications: N-terminus assumed
SMILES: CC[C@H](C)[C@H](N)C(=O)N[C@H](C(=O)N[C@@H](CC(C)C)C(=O)N[C@@H](CO)C(=O)N[C@@H](CC(C)C)C(=O)N[C@@H](CC(=O)O)C(=O)N[C@H](C(=O)N1CCC[C@H]1C(=O)N[C@H](C(=O)N[C@@H](CCCCN)C(=O)N[C@@H](CC(C)C)C(=O)N[C@@H](CCCCNC(=O)COCCOCCNC(=O)COCCOCCNC(=O)CC[C@H](NC(=O)CCCCCCCCCCCCCCCCC(=O)O)C(=O)O)C(=O)N[C@@H](CCC(N)=O)C(=O)N[C@@H](CCCCN)C(=O)N[C@@H](CC(C)C)C(=O)N[C@@H](CC(C)C)C(=O)N[C@@H](CCC(=O)O)C(=O)N[C@@H](CCC(N)=O)C(=O)N[C@@H](CCC(=O)O)C(=O)N[C@@H](CCCNC(=N)N)C(=O)N[C@@H](CCC(N)=O)C(=O)N[C@@H](CCCCN)C(=O)N[C@@H](CCCCN)C(=O)N[C@@H](CCC(N)=O)C(=O)N[C@@H](CCCNC(=N)N)C(=O)N[C@@H](CCC(=O)O)C(=O)N[C@@H](CCC(N)=O)C(=O)N[C@@H](C)C(=O)N[C@@H](CCC(=O)O)C(=O)N[C@H](C(=O)N[C@@H](CC(N)=O)C(=O)NC(C)(C)C(=O)N[C@@H](CCC(N)=O)C(=O)N[C@H](C(=O)N[C@@H](CC(C)C)C(=O)N[C@@H](C)C(=O)N[C@@H](CCC(N)=O)C(=O)N[C@H](C(N)=O)C(C)C)[C@@H](C)CC)[C@@H](C)O)[C@@H](C)CC)C(C)C)C(C)C
Q: Which EC50 [nM], 0% HSA does the source give for B6 here?
A: 9.17 nM
